Assay results: US10428140B2, “Anti-EphA4 antibody” (EISAI R&D MANAGEMENT CO., LTD., priority 2015, dated 2019)
Where a chain is given by its changes, count along the chain named. Each block holds one molecule with its values, some of them ahead of it.

Tests used:
Assay in all cases: Selectivity ELISA of humanized antibodies for human Eph receptor
Assay type in all cases: binding
Conditions in all cases: coated protein 1 nM
SEAP-His = SEAP-His (Homo sapiens, UniProt P05187)
Outline: (§1)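 Capture ELISA: anti-6-His coat, 1% BlockAce block, Eph ECD-SEAP-His (1 nM final, Expi293F supernatant) 1 h RT, humanized Ab 1 h RT, HRP anti-IgG 1 h RT, TMB, H2SO4 stop, A450.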

human EphA6 = target: T1, human EphA6 (Homo sapiens, UniProt Q9UF33)
T1 construct: a protein of the extracellular region of each human Eph receptor fused with the SEAP protein and the His tag; made in house; host or cells: Expi293F cells (culture supernatant)
T1 sequence (Q9UF33 23-550 limits assumed): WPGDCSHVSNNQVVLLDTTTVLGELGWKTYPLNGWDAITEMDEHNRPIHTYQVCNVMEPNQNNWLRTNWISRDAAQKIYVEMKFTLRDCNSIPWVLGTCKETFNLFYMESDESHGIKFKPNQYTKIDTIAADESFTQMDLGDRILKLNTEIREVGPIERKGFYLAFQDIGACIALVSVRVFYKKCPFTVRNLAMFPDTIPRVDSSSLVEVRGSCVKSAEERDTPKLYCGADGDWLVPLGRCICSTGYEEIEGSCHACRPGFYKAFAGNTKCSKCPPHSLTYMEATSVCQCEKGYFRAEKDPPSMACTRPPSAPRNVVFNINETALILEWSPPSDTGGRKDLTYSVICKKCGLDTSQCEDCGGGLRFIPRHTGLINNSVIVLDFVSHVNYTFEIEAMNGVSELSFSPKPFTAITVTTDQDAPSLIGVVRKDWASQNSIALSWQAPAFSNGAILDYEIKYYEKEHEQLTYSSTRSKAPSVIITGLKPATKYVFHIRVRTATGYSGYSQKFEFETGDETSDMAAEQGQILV
Outline: as §1

human EphA2 = target: T2, human EphA2 (Homo sapiens, UniProt P29317)
T2 construct: a protein of the extracellular region of each human Eph receptor fused with the SEAP protein and the His tag; made in house; host or cells: Expi293F cells (culture supernatant)
T2 sequence (P29317 24-537 limits assumed): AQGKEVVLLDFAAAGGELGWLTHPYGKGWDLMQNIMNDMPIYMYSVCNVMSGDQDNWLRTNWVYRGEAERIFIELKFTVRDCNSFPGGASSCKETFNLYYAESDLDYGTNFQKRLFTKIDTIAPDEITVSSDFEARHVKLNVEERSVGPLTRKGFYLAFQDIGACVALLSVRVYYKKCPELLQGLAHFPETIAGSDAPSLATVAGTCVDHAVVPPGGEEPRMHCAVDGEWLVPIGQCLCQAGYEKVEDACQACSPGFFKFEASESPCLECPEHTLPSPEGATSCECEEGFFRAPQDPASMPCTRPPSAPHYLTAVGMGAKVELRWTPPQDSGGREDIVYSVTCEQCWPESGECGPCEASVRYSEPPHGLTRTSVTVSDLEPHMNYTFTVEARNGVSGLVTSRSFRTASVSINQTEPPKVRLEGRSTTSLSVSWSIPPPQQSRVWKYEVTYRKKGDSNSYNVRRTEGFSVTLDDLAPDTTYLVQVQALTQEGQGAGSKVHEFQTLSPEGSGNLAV
Outline: as §1

human EphB6 = target: T3, human EphB6 (Homo sapiens, UniProt O15197)
T3 construct: a protein of the extracellular region of each human Eph receptor fused with the SEAP protein and the His tag; made in house; host or cells: Expi293F cells
T3 sequence (O15197 32-594 limits assumed): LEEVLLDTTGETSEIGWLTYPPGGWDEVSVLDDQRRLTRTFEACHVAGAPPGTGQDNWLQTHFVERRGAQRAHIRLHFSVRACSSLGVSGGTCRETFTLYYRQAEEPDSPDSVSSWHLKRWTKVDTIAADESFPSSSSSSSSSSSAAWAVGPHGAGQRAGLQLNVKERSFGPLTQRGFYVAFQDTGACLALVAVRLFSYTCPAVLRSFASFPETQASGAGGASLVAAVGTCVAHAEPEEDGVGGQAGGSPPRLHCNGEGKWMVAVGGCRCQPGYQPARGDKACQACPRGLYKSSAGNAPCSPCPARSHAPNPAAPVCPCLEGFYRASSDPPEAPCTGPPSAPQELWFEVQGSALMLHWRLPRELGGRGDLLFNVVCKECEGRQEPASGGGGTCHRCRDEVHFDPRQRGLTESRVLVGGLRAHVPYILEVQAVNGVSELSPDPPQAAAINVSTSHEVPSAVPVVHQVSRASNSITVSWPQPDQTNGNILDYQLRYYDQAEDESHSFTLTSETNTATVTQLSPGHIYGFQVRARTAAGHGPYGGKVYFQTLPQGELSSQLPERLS
Outline: as §1

SEAP-His, sequence (P05187 23-511 limits assumed): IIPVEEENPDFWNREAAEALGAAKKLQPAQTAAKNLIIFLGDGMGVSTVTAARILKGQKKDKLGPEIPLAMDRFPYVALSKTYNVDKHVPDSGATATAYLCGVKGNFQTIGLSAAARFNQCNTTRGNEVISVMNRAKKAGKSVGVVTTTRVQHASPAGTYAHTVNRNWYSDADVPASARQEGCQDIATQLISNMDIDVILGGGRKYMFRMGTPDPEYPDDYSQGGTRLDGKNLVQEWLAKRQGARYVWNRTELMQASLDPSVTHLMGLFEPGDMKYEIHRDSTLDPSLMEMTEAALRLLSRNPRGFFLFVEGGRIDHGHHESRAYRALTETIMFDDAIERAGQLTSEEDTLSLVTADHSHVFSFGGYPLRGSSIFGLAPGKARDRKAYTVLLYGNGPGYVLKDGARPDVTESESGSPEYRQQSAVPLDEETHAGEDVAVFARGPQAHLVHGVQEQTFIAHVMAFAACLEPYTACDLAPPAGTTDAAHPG

- SEAP-His: absorbance at 450 nm, percentage with respect to hEphA4-SEAP-His as 100% (SEAP-His): 5.8%
- hEphA6-SEAP-: absorbance at 450 nm, percentage with respect to hEphA4-SEAP-His as 100% (human EphA6): 9.7%
- hEphA2-SEAP-: absorbance at 450 nm, percentage with respect to hEphA4-SEAP-His as 100% (human EphA2): 5.6%
- hEphB6-SEAP-: absorbance at 450 nm, percentage with respect to hEphA4-SEAP-His as 100% (human EphB6): 5.6%
B2: 142 (antibody, V domains shown)
VH: QVQLVQSGSELKKPGASVKVSCKASGYTFTDYSMHWVRQAPGQGLKWMGWINTETGEPTYADDFKGRFVFSLDTSVSTAYLQISSLKAEDTAVYYCARIPLYYYGSRYWYFDVWGQGTTVTVSS
VL: DIQMTQSPSSLSASVGDRVTITCRASENIYRNLAWYQQKPGKAPKLLVYAATNLADGVPSRFSGSGSGTDYTLTISSLQPEDFATYYCQHFWGTPWTFGQGTKVEIK
modifications: synthetic humanized antibody heavy chain variable region sequence; synthetic humanized antibody light chain variable region sequence

- SEAP-His: absorbance at 450 nm, percentage with respect to hEphA4-SEAP-His as 100% (SEAP-His): 5.4%
- hEphA6-SEAP-: absorbance at 450 nm, percentage with respect to hEphA4-SEAP-His as 100% (human EphA6): 10.8%
- hEphA2-SEAP-: absorbance at 450 nm, percentage with respect to hEphA4-SEAP-His as 100% (human EphA2): 5.3%
- hEphB6-SEAP-: absorbance at 450 nm, percentage with respect to hEphA4-SEAP-His as 100% (human EphB6): 5.2%
B3: 140 (antibody, V domains shown)
VH: B2 VH with D62Q, D63G, K65T
VL: B2 VL
modifications: synthetic humanized antibody heavy chain variable region sequence; synthetic humanized antibody light chain variable region sequence

- SEAP-His: absorbance at 450 nm, percentage with respect to hEphA4-SEAP-His as 100% (SEAP-His): 5.0%
- hEphA6-SEAP-: absorbance at 450 nm, percentage with respect to hEphA4-SEAP-His as 100% (human EphA6): 9.0%
- hEphA2-SEAP-: absorbance at 450 nm, percentage with respect to hEphA4-SEAP-His as 100% (human EphA2): 5.2%
- hEphB6-SEAP-: absorbance at 450 nm, percentage with respect to hEphA4-SEAP-His as 100% (human EphB6): 5.4%
B5: 141 (antibody, V domains shown)
VH: B2 VH with K46E
VL: B2 VL
modifications: synthetic humanized antibody heavy chain variable region sequence; synthetic humanized antibody light chain variable region sequence

Continued, molecule first:

B1: 139 (antibody)
VH: B2 VH with K46E, D62Q, D63G, K65T
VL: B2 VL
chain: ASTKGPSVFPLAPSSRSTSESTAALGCLVKDYFPEPVTVSWNSGALTSGVHTFPAVLQSSGLYSLSSVVTVPSSNFGTQTYTCNVDHKPSNTKVDKTVERKSCVECPPCPAPPAAAPSVFLFPPKPKDTLMISRTPEVTCVVVDVSHEDPEVQFNWYVDGVEVHNAKTKPREEQFNSTFRVVSVLTVVHQDWLNGKEYKCKVSNKGLPAPIEKTISKTKGQPREPQVYTLPPSREEMTKNQVSLTCLVKGFYPSDIAVEWESNGQPENNYKTTPPMLDSDGSFFLYSKLTVDKSRWQQGNVFSCSVMHEALHNHYTQKSLSLSPG
modifications: synthetic humanized antibody heavy chain variable region sequence; synthetic humanized antibody light chain variable region sequence; synthetic antibody constant region sequence
- SEAP-His: absorbance at 450 nm, percentage with respect to hEphA4-SEAP-His as 100% (SEAP-His): 5.7%
- hEphA6-SEAP-: absorbance at 450 nm, percentage with respect to hEphA4-SEAP-His as 100% (human EphA6): 10.0%
- hEphA2-SEAP-: absorbance at 450 nm, percentage with respect to hEphA4-SEAP-His as 100% (human EphA2): 5.9%
- hEphB6-SEAP-: absorbance at 450 nm, percentage with respect to hEphA4-SEAP-His as 100% (human EphB6): 5.9%

B4: 138 (antibody, V domains shown)
VH: B2 VH with V2I, D62Q, D63G, K65T
VL: B2 VL
modifications: synthetic humanized antibody heavy chain variable region sequence; synthetic humanized antibody light chain variable region sequence
- SEAP-His: absorbance at 450 nm, percentage with respect to hEphA4-SEAP-His as 100% (SEAP-His): 5.1%
- hEphA6-SEAP-: absorbance at 450 nm, percentage with respect to hEphA4-SEAP-His as 100% (human EphA6): 10.2%
- hEphA2-SEAP-: absorbance at 450 nm, percentage with respect to hEphA4-SEAP-His as 100% (human EphA2): 5.0%
- hEphB6-SEAP-: absorbance at 450 nm, percentage with respect to hEphA4-SEAP-His as 100% (human EphB6): 5.0%
